Reference: article PMC12748766, “Structural basis for human chondroitin sulfate chain polymerization” (Nature Communications, 2025)
Positions count from the first letter of the chain named.

Legend:
Test in all cases: mass photometry; Refeyn OneMP; purified complexes diluted in 20 mM MES pH 6.5, 150 mM NaCl to around 25 nM
Conditions in all cases: both partners purified
[1] = molecular target: T1, CHSY3^D718N/D720N, secreted construct aa157-aa882 (human, UniProt Q70JA7 157-882, D718N | D720N)
T1 construct: CHSY3, human, UniProt Q70JA7, residues 157-882, mutations in the DxD motif of the C-terminal GT domain; source: Freestyle 293-F cells, co-transfected with CHPF, secreted; purified by the same protocol as the wild-type complexes; not shown: SUMO, N-terminal, cleaved; His6, N-terminal, cleaved
T1 sequence (looked up): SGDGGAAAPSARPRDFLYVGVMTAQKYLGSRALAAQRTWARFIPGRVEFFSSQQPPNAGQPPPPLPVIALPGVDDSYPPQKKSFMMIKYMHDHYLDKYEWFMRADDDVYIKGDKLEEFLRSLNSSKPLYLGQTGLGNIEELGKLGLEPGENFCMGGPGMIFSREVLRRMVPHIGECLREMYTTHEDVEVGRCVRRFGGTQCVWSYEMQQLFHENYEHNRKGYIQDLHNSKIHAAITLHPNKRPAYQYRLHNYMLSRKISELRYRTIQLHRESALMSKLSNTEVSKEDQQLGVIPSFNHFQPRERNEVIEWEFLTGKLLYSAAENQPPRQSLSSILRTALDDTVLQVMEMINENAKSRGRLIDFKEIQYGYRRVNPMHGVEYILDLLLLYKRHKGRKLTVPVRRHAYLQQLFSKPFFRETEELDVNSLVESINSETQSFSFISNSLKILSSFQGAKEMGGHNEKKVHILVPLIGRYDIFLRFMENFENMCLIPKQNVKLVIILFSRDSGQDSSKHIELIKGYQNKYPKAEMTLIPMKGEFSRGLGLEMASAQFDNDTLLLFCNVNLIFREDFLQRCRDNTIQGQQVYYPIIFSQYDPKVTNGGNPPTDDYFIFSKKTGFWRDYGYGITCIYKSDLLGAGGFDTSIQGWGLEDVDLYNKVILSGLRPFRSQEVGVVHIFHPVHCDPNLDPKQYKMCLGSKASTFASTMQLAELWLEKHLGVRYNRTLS

[2] = molecular target: T2, Chondroitin Sulfate Synthase-1 (CHSY1), secreted N-terminally truncated construct aa68-aa802 (human, UniProt Q86X52 68-802)
T2 construct: CHSY1, human, UniProt Q86X52, residues 68-802 (membrane-spanning helix removed); Construct in pHR-CMV-TetO2 with an N-terminal chicken RPTP sigma signal peptide, SUMO, 6x His and a 3C site; no cleavage site before the C-terminal Avi tag; source: Freestyle 293-F cells, co-transfected, secreted; purified from the supernatant (HisTrap, 3C protease, second HisTrap); not shown: SUMO, N-terminal, …
T2 sequence (looked up): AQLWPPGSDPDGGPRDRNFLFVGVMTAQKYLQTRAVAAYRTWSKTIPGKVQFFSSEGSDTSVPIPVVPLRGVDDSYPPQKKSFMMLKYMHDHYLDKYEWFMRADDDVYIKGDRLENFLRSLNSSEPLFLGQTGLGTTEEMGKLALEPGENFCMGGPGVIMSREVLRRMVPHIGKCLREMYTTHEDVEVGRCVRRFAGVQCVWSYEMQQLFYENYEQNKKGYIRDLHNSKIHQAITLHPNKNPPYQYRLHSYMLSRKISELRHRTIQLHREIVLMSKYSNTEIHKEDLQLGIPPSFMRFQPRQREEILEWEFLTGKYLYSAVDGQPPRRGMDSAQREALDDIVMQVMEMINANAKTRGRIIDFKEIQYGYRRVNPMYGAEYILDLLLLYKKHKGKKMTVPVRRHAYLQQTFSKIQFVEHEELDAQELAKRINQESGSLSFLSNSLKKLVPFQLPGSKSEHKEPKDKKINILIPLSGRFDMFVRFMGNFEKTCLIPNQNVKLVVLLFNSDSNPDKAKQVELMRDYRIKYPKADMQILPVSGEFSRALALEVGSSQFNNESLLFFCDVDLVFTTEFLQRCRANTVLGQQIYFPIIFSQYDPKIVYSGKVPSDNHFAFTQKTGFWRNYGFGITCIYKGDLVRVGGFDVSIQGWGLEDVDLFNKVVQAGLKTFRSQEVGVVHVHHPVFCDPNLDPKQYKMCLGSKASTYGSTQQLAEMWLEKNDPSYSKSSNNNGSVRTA

[3] = molecular target: T3, CHSY3^H394A, secreted construct aa157-aa882 (human, UniProt Q70JA7 157-882, H394A)
T3 construct: CHSY3, human, UniProt Q70JA7, residues 157-882, mutation in the N-terminal GT domain; source: Freestyle 293-F cells, co-transfected with CHPF, secreted; purified by the same protocol as the wild-type complexes; not shown: SUMO, N-terminal, cleaved; His6, N-terminal, cleaved
T3 sequence (looked up): T1 sequence (looked up) with H238A, N562D, N564D

binding result [1]: binds | binding result [2]: binds | binding result [3]: binds
B1: Chondroitin Polymerizing Factor (CHPF), secreted N-terminally truncated construct aa81-aa775 (domain or fragment, human, UniProt Q8IZ52 81-775, looked up)
chain: GENWEPRVLPYHPAQPGQAAKKAVRTRYISTELGIRQRLLVAVLTSQTTLPTLGVAVNRTLGHRLERVVFLTGARGRRAPPGMAVVTLGEERPIGHLHLALRHLLEQHGDDFDWFFLVPDTTYTEAHGLARLTGHLSLASAAHLYLGRPQDFIGGEPTPGRYCHGGFGVLLSRMLLQQLRPHLEGCRNDIVSARPDEWLGRCILDATGVGCTGDHEGVHYSHLELSPGEPVQEGDPHFRSALTAHPVRDPVHMYQLHKAFARAELERTYQEIQELQWEIQNTSHLAVDGDQAAAWPVGIPAPSRPASRFEVLRWDYFTEQHAFSCADGSPRCPLRGADRADVADVLGTALEELNRRYHPALRLQKQQLVNGYRRFDPARGMEYTLDLQLEALTPQGGRRPLTRRVQLLRPLSRVEILPVPYVTEASRLTVLLPLAAAERDLAPGFLEAFATAALEPGDAAAALTLLLLYEPRQAQRVAHADVFAPVKAHVAELERRFPGARVPWLSVQTAAPSPLRLMDLLSKKHPLDTLFLLAGPDTVLTPDFLNRCRMHAISGWQAFFPMHFQAFHPAVAPPQGPGPPELGRDTGRFDRQAASEACFYNSDYVAARGRLAAASEQEEELLESLDVYELFLHFSSLHVLRAVEPALLQRYRAQTCSARLSEDLYHRCLQSVLEGLGSRTQLAMLLFEQEQGNST
notes: CHPF, human, UniProt Q8IZ52, residues 81-775 (membrane-spanning helix removed); Construct in pHR-CMV-TetO2 with an N-terminal chicken RPTP sigma signal peptide, SUMO, 6x His and a 3C site; a second 3C site stands before the C-terminal twin streptavidin tag; also called Chondroitin sulfate synthase 2; source: Freestyle 293-F cells, co-transfected, secreted; purified from the supernatant (HisTrap, …)
